We go through one molecule from paper PMC4764579, “Structural insights into the mechanism of activation of the TRPV1 channel by a membrane-bound tarantula toxin” (eLife, 2016).

Data set [1] in a line: Membrane partitioning of toxins into lipid vesicles measured using Trp fluorescence. The format is physicochemical. An excerpt: Motivated by the amphipathic character evident in the structure of DkTx, together with the placement of the toxin at the protein-lipid interface when bound to TRPV1, we investigated the interaction of DkTx and each of its two lobes with lipid membranes. For these experiments, we took advantage of the presence of a single conserved and solvent accessible Trp residue in loop 2 of both K1 and K2 (Figure 1C,D; W11 and W53), and used Trp fluorescence to monitor the partitioning of the toxin from the aqueous solution into the membrane environment ([Gupta et al., 2015]; [Ladokhin et al., 2000]; [Milescu et al., 2007]). When aqueous solutions of DkTx were excited at a wavelength of 280 nm, emission spectra with maxima at 353 nm were obtained (Figure 5A, left), as expected for Trp residues residing in such an environment. […] To quantify the extent of partitioning as a function of lipid concentration, we measured the relative fluorescence intensity in a blue-shifted region of the spectra (e.g. 320 nm) as a function of lipid concentration, and fit a partition function to the data to obtain a mole-fraction partition coefficient (Kx) of (2.3 ± 0.7) × 10^6, indicating an energetically favorable interaction of DkTx with lipid membranes (Figure 5A, right). This strong interaction of DkTx with membranes would facilitate binding of the toxin to the channel by increasing the local concentration of the toxin near the channel and by a reduction in the dimensionality of diffusion within the membrane ([Axelrod and Wang, 1994]).
Figure 5. Interaction of DkTx and toxin constructs with lipid membranes measured using Trp fluorescence. […] (A–E, right panel) Relative fluorescence intensity at 320 nm (F/F0) as a function of available lipid concentrations (60% of total lipid concentration). […] Interaction of K1-K2 chimeras with lipid membranes measured using Trp fluorescence. […] (A–D, right panel) Relative fluorescence intensity at 320 nm (F/F0) as a function of available lipid concentrations (60% of total lipid concentration). […]

Data set [2] deals with T1, rTRPV1 (Rattus norvegicus, UniProt O35433).
T1 construct: preserved in the full-length construct used for our functional studies; expressed in transfected cells; host or cells: HEK293
T1 sequence (O35433 whole entry): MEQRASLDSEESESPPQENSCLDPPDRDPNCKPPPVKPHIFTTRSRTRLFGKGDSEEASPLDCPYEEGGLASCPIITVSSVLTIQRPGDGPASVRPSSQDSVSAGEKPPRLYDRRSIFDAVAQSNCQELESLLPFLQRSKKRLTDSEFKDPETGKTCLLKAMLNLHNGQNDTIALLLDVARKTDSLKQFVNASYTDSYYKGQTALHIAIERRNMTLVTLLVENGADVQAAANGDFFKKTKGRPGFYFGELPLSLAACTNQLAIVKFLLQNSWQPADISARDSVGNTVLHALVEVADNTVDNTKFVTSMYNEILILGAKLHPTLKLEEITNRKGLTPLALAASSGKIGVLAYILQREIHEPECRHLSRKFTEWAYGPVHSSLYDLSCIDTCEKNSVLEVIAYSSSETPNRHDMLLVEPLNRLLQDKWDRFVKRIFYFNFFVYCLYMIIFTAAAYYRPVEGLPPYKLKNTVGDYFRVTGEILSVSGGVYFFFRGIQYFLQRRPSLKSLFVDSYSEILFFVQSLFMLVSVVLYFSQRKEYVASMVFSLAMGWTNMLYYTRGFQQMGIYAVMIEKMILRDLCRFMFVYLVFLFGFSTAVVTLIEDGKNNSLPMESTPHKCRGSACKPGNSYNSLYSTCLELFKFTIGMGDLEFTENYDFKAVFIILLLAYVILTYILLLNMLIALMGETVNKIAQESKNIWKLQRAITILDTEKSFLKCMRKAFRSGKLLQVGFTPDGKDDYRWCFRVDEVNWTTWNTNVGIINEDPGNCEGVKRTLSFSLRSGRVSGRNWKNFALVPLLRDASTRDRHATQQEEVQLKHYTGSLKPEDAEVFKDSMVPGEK
Put plainly: Whole-cell patch clamp recordings of TRPV1 activation by toxins in transiently transfected HEK293 cells. The format is cell-based. The text has this:
Figure 3. Validation of the proposed structural model of the TRPV1-DkTx complex. Close-up of K1 (A) and K2 (B) in the top-ranking ROSETTA model of DkTx bound to TRPV1. Side chains of TRPV1 residues where mutation disrupts DkTx-induced channel activation (I599, F649, A657 and F659) ([Bohlen et al., 2010]) are highlighted in purple. (C) Representative time courses of TRPV1 activation at +120 mV by either DkTx (left panel), K1K1 (middle panel) or K2K2 (right panel) measured from a train of voltage-ramps in the whole-cell configuration with the TRPV1 expressed in HEK cells. […] Fractional dissociation 1 min after toxin removal was quantified across cells as the current amplitude 1 min after toxin removal divided by the steady-state current amplitude in the presence of the toxin. […] Activation of the full-length TRPV1 channel by the toxin at different concentrations was measured in oocytes at a holding voltage of −60 mV. […]
Figure 7. […] Currents were measured every 3 s by applying voltage-ramps of 1 s duration from −120 to +140 mV starting at a holding potential of −90 mV. Currents were recorded under constant perfusion with control solution or with the test solutions containing either NMDG^+ instead of Na^+ as permeant ion (gray), or the K2 toxins together with 130 mM NaCl (black and blue), as indicated by the continuous horizontal lines. […]

B1: double-knot toxin (protein)
chain: DCAKEGEVCSWGKKCCDLDNFYCPMEFIPHCKKYKPYVPVTTNCAKEGEVCGWGSKCCHGLDCPLAFIPYCEKYR
notes: produced recombinantly
Regarding B1, the “F/F0^max (relative fluorescence intensity at 320 nm when partitioning is saturated)” value in data set [1] (Trp fluorescence, LUVs 1:1 POPC:POPG, 10 mM HEPES, 1 mM EDTA, pH 7.0, fit of partition function, ± SEM, n = 3 or 4, SEM) worked out at 2.65 ± 0.08. Moreover, the “mole-fraction partition coefficient (Kx)” value in data set [1] (Trp fluorescence, excitation 280 nm, F/F0 at 320 nm, LUVs 1:1 POPC:POPG extruded through 100 nm, toxin 2 or 5 µM in 10 mM HEPES, 1 mM EDTA, pH 7.0, available lipid 60% of total, fit of partition function, ± SEM, n = 3 or 4, SEM) was “(2.3 ± 0.7) × 10^6”. Moreover, the “measured free energy of membrane partitioning (ΔG° = −RT lnKx)” value in data set [1] (from measured Kx, LUVs 1:1 POPC:POPG) was -8.5 kcal/mol. Also, the “dissociation from TRPV1 after toxin removal (in words)” value in data set [2] (HEK cells) is reported as “slow dissociation”. Moreover, the “Fractional dissociation 1 min after toxin removal (current amplitude 1 min after toxin removal divided by steady-state current amplitude in presence of toxin)” value in data set [2] (TRPV1 in HEK cells, +120 mV from voltage ramps, 1 µM toxin, mean ± sem, n = 8 (DkTx), 5 (K1K1), 6 (K2K2), SEM) amounted to 0.8 ± 0.05.
